Test results reported in US20240075137A1 (COMPUGEN, published 2024).
Residue numbers refer to the chain shown, from its start.

T1: human PVRIG on cells (human, UniProt Q6DKI7 1-326)
T1 construct: whole, on cells; over-expressed on HEK cells or endogenous on Jurkat and CD8 T cells; also called hPVRIG; HEK hPVRIG cells
T1 sequence (looked up): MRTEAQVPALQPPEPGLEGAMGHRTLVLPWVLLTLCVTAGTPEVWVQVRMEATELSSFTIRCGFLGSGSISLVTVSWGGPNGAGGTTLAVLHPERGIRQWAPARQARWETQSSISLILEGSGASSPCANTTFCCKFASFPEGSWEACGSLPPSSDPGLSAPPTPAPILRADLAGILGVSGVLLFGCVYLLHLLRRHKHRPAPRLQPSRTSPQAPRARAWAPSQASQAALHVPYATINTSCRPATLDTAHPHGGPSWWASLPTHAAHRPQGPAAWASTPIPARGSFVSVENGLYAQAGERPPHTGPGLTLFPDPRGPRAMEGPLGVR

T2: cynomolgus PVRIG on cells (cynomolgus, UniProt A0A2K5WVV8 41-322)
T2 construct: whole, on cells; also called cPVRIG; expi cPVRIG cells
T2 sequence: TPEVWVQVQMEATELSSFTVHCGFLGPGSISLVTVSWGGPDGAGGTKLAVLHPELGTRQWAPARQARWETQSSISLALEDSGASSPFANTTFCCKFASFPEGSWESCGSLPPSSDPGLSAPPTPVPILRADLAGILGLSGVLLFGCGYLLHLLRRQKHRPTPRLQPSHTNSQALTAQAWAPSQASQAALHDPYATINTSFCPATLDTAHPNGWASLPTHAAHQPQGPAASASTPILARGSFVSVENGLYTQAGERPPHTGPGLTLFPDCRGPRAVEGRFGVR

T3: PVRIG (FACS-based competition assay of FIGS. 7 and 15) (Homo sapiens, UniProt Q6DKI7)
T3 construct: made because the format of the assay is only described in U.S. Ser. No. 15/048,967; also called human PVRIG
T3 sequence (receptor, looked up): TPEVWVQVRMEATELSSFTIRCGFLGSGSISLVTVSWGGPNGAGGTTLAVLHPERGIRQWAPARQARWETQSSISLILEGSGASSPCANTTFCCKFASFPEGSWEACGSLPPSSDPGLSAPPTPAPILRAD

B1: CHA.7.543 (antibody, V domains shown)
VH: QVQLKESGPGLVAPSQSLSITCTVSGFSLSGYGIKWVRQPPGKGLEWLGTIWGDGSTDYNSALKSRLSISKDNSKSQVFLKMTSLQTDDTARYYCASDSLGITFGYWGQGTLVTVSA
VL: DIQMTQTTSSLSASLGDRVTISCRASQDISNYLNWYQQKPDGTVKLLIYYTSRLHSGVPSRFSGSGSGTDYSLTISNLEQEDIATYFCQQGNTLPLTFGAGTKLELK
B2: CHA.7.545 (antibody, V domains shown)
VH: QIQLVQSGPDLKKPGETVKISCKASGYTFTTYGMSWVKQAPGRGLKWMGWINTYSGVSTFPDDFKGRFAFSLETSASTAYLQINNLKNEDSATYFCARLGMGSTTGAGYFDVWGTGTTVTVSS
VL: DIVLTQSPAIMSASPGEKVTMTCSASSSVSSWYLHWYQQKSGASPKLWIYGTSNLASGVPARFSGSGSGTSYSLTISSVEAEDAATYYCQQYRSDPYTFGSGTKLEIK
B3: CHA.7.547 (antibody, V domains shown)
VH: B2 VH
VL: ENVLTQSPAIMSASLGEKVTLSCRASSSVNYMYWYQQKSDASPKLWIYYTSNLAPGVPARFSGSGSGNSYSLTISSVEGEDAATYYCQQFTSSPWTFGGGTKLEIK
B4: CHA.7.546 (antibody, V domains shown)
VH: B2 VH with D10E, R43K, F60Y, P61A, K65E, A76V, S91T, M101R, F110L
VL: B2 VL with T20S, R93H
B5: CHA.7.537 (antibody, V domains shown)
VH: QVQLKESGPGLVAPSQSLSITCTVSGFSLIGHGVNWIRQPPGKGLEWLGVIWGDGNTDYNSALKSRLSISKDNSKSQVFLKMNSLQTDDTARYFCAVNSAMDYWGQGTAVTVSS
VL: NIVMTQSPKSMSMSVGERVTLNCTASENVASFVSWYQQKPEQSPKLLIYGTSNRYTGVPDRFTGSGSATDFTLTISSVQAEDLGDYHCGQSYNYPFTFGSGTKLEIE
B6: CHA.7.549 (antibody, V domains shown)
VH: QVQLQQPGTELVKPGASVKLSCKASGFTFTTHWMHWVRQRPGQGLEWIGNIYPSNGGSNYNEKFKTKATLTVDRSSSTAYMHLSSLTSEDSAVYYCARRVNWDGYYFDYWGQGTTLTVSS
VL: DIVMTQSQKFMSTSVGDRVSVTCKASQNVGTNVAWYQQKPGQSPKLLIYSASYRYSGVPDRFTGSGSGTDFTLTISNVQSEDLADYFCQQYNSYPLTFGGGTKLEIK
B7: CHA.7.528 (antibody, V domains shown)
VH: EVQVQQSGPELVKPGASVKISCKASGYTFTKSNMHWVKQSHGKSLEWIGYIYPYNGGTGYNQNFKSKATLTVDISSSTAYMELRSLTLEDSAVYLCAREADYYGNRGQFDYWGQGTLVTVSA
VL: DIQMTQSPASLSVSVGETVTITCRASDNIFSNLAWYHQKQGKSPHLLVYGATNLADGVPSRFSGSGSGTQYSLKINSLQSEDFGDYYCQHFWGTPYTFGGGTKLEIK
B8: CHA.7.530 (antibody, V domains shown)
VH: QVQLQQSGAELMRPGTSVKVSCKASGYAFTNHLIEWIKQRPGQGLEWIGVINPGSDSTDYNEKFKDKATLTADKSSSTAYMQLSSLTSDDSAVYFCARSLYYNSWFVYWGQGTLVTVSA
VL: DIQMTQSPASLSASVGETVTITCRASENIYSYLAWYQQKRGKSPQLLVYNAKTLVEGVPSRFSGSGSGTQFSLKINSLQPEDFGSYYCQHHYGTPYTFGGGTKLEIK

Each binder was assayed against T1, human PVRIG on cells (assay: FACS, human PBMC, CD8+ T cells, 10ug/ml).

| Binder | gMFIr Human CD8+ T cells |
| --- | --- |
| B1 | 4.33 |
| B2 | 2.82 |
| B3 | 1.13 |
| B4 | 2.95 |
| B5 | 3.41 |
| B6 | 1.42 |
| B7 | 3.63 |
| B8 | 6.47 |

Each binder was assayed against T2, cynomolgus PVRIG on cells (assay: FACS, cyno PBMC, NK cells, 10ug/ml).

| Binder | gMFIr Cyno NK cells |
| --- | --- |
| B1 | 1.35 |
| B5 | 1.18 |
| B7 | 1.21 |
| B8 | 1.73 |

What follows are binders tested against T3, PVRIG (FACS-based competition assay of …) (assay: FACS-based competition assay of PVRIG blocking; format and competitor not given).

| Binder | IC50 |
| --- | --- |
| B5 | 39 nM |
| B7 | 28.9 nM |
| B8 | 34.6 nM |

These binders were tested against T1, human PVRIG on cells (assay: FACS, HEK hPVRIG over HEK parental cells, 3.3ug/ml).

| Binder | gMFIr HEK OE/par |
| --- | --- |
| B1 | 49.8 |
| B2 | 44.3 |
| B3 | 10.9 |
| B4 | 43.1 |
| B6 | 29.7 |

Target: T3, PVRIG (FACS-based competition assay of …)
Assay: FACS-based competition assay of PVRIG blocking; format and competitor not given
Remark: another data set of the same source

| Binder | IC50 |
| --- | --- |
| B2 | 96.1 nM |
| B3 | 27.9 nM |
| B4 | 92 nM |
| B5 | 39 nM |
| B6 | 36.1 nM |
| B7 | 28.9 nM |
| B8 | 34.6 nM |

These binders were tested against T1, human PVRIG on cells (assay: FACS, human PBMC, CD56 int. NK cells, 10ug/ml).

| Binder | gMFIr Human CD56 int. NK |
| --- | --- |
| B1 | 4.48 |
| B2 | 2.54 |
| B3 | 2.21 |
| B4 | 2.75 |
| B5 | 3.9 |
| B6 | 3.05 |
| B7 | 3.08 |
| B8 | 6.04 |

Target: T2, cynomolgus PVRIG on cells
Assay: FACS, cyno PBMC, NK cells, 10ug/ml
Remark: another data set of the same source

| Binder | gMFIr Cyno NK cells |
| --- | --- |
| B1 | 1.35 |
| B5 | 1.18 |
| B7 | 1.21 |
| B8 | 1.73 |

What follows are binders tested against T1, human PVRIG on cells (assay: FACS, Jurkat cells, relative to control, 3.3ug/ml).

| Binder | gMFIr Jurkat |
| --- | --- |
| B5 | 5.53 |
| B7 | 6.17 |
| B8 | 8.04 |

Target: T1, human PVRIG on cells
Assay: FACS, human PBMC, CD56 int. NK cells, 10ug/ml
Remark: another data set of the same source

| Binder | gMFIr Human CD56 int. NK |
| --- | --- |
| B1 | 4.48 |
| B2 | 2.54 |
| B3 | 2.21 |
| B4 | 2.75 |
| B5 | 3.9 |
| B6 | 3.05 |
| B7 | 3.08 |
| B8 | 6.04 |

Target: T1, human PVRIG on cells
Assay: FACS, Jurkat cells, relative to control, 3.3ug/ml
Remark: another data set of the same source

| Binder | gMFIr Jurkat |
| --- | --- |
| B1 | 6.73 |
| B2 | 6.53 |
| B3 | 1.02 |
| B4 | 6.42 |
| B6 | 2.23 |

The binders below were run against T2, cynomolgus PVRIG on cells (assay: FACS, cyno PBMC, CD8+ T cells, 10ug/ml).

| Binder | gMFIr Cyno CD8+ T cells |
| --- | --- |
| B1 | 1.39 |
| B5 | 1.19 |
| B7 | 1.18 |
| B8 | 1.89 |

The binders below were run against T2, cynomolgus PVRIG on cells (assay: FACS, expi cPVRIG over expi parental cells, 3.3ug/ml).

| Binder | gMFIr Expi cyno OE/par |
| --- | --- |
| B1 | 0.83 |
| B2 | 0.91 |
| B3 | 26.6 |
| B4 | 0.85 |
| B5 | 1.55 |
| B6 | 1 |
| B7 | 12.2 |
| B8 | 60.8 |

Target: T3, PVRIG (FACS-based competition assay of …)
Assay: FACS-based competition assay of PVRIG blocking; format and competitor not given
Remark: another data set of the same source

| Binder | IC50 |
| --- | --- |
| B2 | 96.1 nM |
| B3 | 27.9 nM |
| B4 | 92 nM |
| B6 | 36.1 nM |

Target: T2, cynomolgus PVRIG on cells
Assay: FACS, cyno PBMC, CD8+ T cells, 10ug/ml
Remark: another data set of the same source

| Binder | gMFIr Cyno CD8+ T cells |
| --- | --- |
| B1 | 1.39 |
| B5 | 1.19 |
| B7 | 1.18 |
| B8 | 1.89 |

Target: T2, cynomolgus PVRIG on cells
Assay: FACS, expi cPVRIG over expi parental cells, 3.3ug/ml
Remark: another data set of the same source

| Binder | gMFIr Expi cyno OE/par |
| --- | --- |
| B1 | 0.83 |
| B2 | 0.91 |
| B3 | 26.6 |
| B4 | 0.85 |
| B5 | 1.55 |
| B6 | 1 |
| B7 | 12.2 |
| B8 | 60.8 |

Target: T1, human PVRIG on cells
Assay: FACS, human PBMC, CD8+ T cells, 10ug/ml
Remark: another data set of the same source

| Binder | gMFIr Human CD8+ T cells |
| --- | --- |
| B1 | 4.33 |
| B2 | 2.82 |
| B3 | 1.13 |
| B4 | 2.95 |
| B5 | 3.41 |
| B6 | 1.42 |
| B7 | 3.63 |
| B8 | 6.47 |

Each binder was assayed against T1, human PVRIG on cells (assay: FACS, HEK hPVRIG cells (HEK OE)).

| Binder | EC50 |
| --- | --- |
| B1 | 0.52 nM |
| B2 | 0.76 nM |
| B3 | 14.4 nM |
| B4 | 0.61 nM |
| B6 | 2.6 nM |

Target: T1, human PVRIG on cells
Assay: FACS, HEK hPVRIG cells (HEK OE)
Remark: another data set of the same source

| Binder | EC50 |
| --- | --- |
| B5 | 2.47 nM |
| B7 | 7.31 nM |
| B8 | 0.33 nM |

Target: T1, human PVRIG on cells
Assay: FACS, HEK hPVRIG over HEK parental cells, 3.3ug/ml
Remark: another data set of the same source

| Binder | gMFIr HEK OE/par |
| --- | --- |
| B5 | 36.6 |
| B7 | 44.9 |
| B8 | 51.1 |
